Assay results published in the DeepSol protein solubility set.

test: soluble on expression in E. coli; label from the status in PepcDB or PDB records

| Sequence | soluble on expression in E. coli |
| --- | --- |
| MAAQRRSLLQSEQQPSWTDDLPLCHLSGVGSASNRSYSADGKGTESHPPEDSWLKFRSENNCFLYGVFNGYDGNRVTNFVAQRLSAELLLGQLNAEHAEADVRRVLLQAFDVVERSFLESIDDALAEKASLQSQLPEGVPQHQLPPQYQKILERLKTLEREISGGAMAVVAVLLNNKLYVANVGTNRALLCKSTVDGLQVTQLNVDHTTENEDELFRLSQLGLDAGKIKQVGIICGQESTRRIGDYKVKYGYTDIDLLSAAKSKPIIAEPEIHGAQPLDGVTGFLVLMSEGLYKALEAAHGPGQANQEIAAMIDTEFAKQTSLDAVAQAVVDRVKRIHSDTFASGGERARFCPRHEDMTLLVRNFGYPLGEMSQPTPSPAPAAGGRVYPVSVPYSSAQSTSKTSVTLSLVMPSQGQMVNGAHSASTLDEATPTLTNQSPTLTLQSTNTHTQSSSSSSDGGLFRSRPAHSLPPGEDGRVEPYVDFAEFYRLWSVDHGEQSVVTAP | not soluble |
| MGSDKIHHHHHHMLKLDKIQANKIVEKLMADIPYNINIMDERGKIIASGDSARIGERHRGAERAINERKNIEIYKDTSLEKKGTNEPIILNNHILGVVGISGEPDEVRKFTKLVRSIVLLLTEELNTQQEREKKKKQKNQFIQHLMHVDSSYSEALKLEALELYNLQLDDQNHCVLTKDKRLLSSYYPGHEIFEWENCYLVITSEPPQITKPVTEYLVISSEKATIQQMVQEAQNTYLLLSFLQLEKAKFYQAEDFFIQGIFNFPFHIELDFFETIQTIYDEYYETVIFFANHNLNINETSQVLHIHRNTLNYRLKRIHELTGMDPKVWQDFWKLFYYFAYCFKERFEK | not soluble |
| MNILLAGGSGLIGQELVRGMGEEHHYTVLGRDKDAIQKIFTTKASSLSWDELNTQDASRFDAVINLCGVNIAISRWTPKIKEEIISSRVQTTENLLHWILQQNAKPRFYCANAVGIYGLQENGDATDLTEDTAINWEHPKDYLSEVGIRWQQALQKAEEAGLPVTSTRFGVVLKKGKGFLGKLYPSFICGLGSTIGDGRQYLSWIDSEDLVNAYRFLLNHPEITGPVNVTSPNPCMQREFAKAFAKSLHRPLLLWTPAFIIHLLFGEMGDCLINHGQKVKPKRLLEAGFEFKWPDIEKALKHQYSAILEHHHHHH | soluble |
| MGITSAGMQSRDAECGERIFTRTVRQVKQQTTVHYFVSPPRPPVKTNPQAKTLISTRLEVATRKKRRVLFILEHHHHHH | not soluble |
| GNNFNWTSVLNMTHNKNKIVSLDGKLDQSIEGSWFIHKVGLPYSTFYVKEYAGVDPQTGKALYYMNTQDANGNYDRTVTTDASAAQAIPYKSVDPKISGGFTNIVNYKWFDLALTLTYSLGGYSFDKTGTYNETDGAKEQNYNLPIYELDRWQKPGDVTDVPRFVLGQAAGPQNSSRYVHSTDHLRVKNLTLGFTLPDQWLTKLGVSKARLYFSGSNLLTWAKWDQYDPEVPVSGEVFCETPPMRTYSFGIEVSF | not soluble |
| MAPLGTTVLLWSLLRSSPGVERVCFRARIQPWHGGLLQPLPCSFEMGLPRRRFSSEAESGSPETKKPTFMDEEVQSILTKMTGLNLQKTFKPAIQELKPPTYKLMTQAQLEEATRQAVEAAKVRLKMPPVLEERVPINDVLAEDKILEGTETTKYVFTDISYSIPHRCLEHHHHHHH | not soluble |
| MGSDKIHHHHHHMPLCPSCEMKFNSWEDLAKHMDLIANTNSDKSHVMWLNRNISMKRMEVNELANALERFFSTPNSLSMWIRTRFIERFYGDNPHPFIVAMQNPTKGVLLGYVIEHQHFLKNWVKVLSSIVFKTDKDDVLQYELENISVEFIGYNGRPAHYELLLRMGEALGMPREKILSTQPLPSTQSAIKTWRKIAESKTWLETMASMHSLELVADRSLVKYGAKLPYFNPEILSSDEYPQAVKDFLREGYEADVSHAGEALEMVEKYTEEMEMKEQVQITVLKSFDAFSKYLLARLERGFEIEPSLLKRVIK | not soluble |
| MPSKLFSRRSFVTTACAGLAALALPLPAVALTEARAASLVNEVVTEINRVIASGKSENAMIRDFEKLFVRYGDVPIMARYALGPDARTASPAQLKSFTQAFQGYISRKYGKRFREFIGGEVTVKTARKIKAGYEVKTSVKLQGQAPFDVTFLVSDKSGKDKFFNMFIEGVNLLLTERTEIGSMLDRRKGDLNALIRDLASAGLEHHHHHH | soluble |
| MLGVCYYPEHWPKERWKEDARRMREAGLSHVRIGEFAWALLEPEPGRLEWGWLDEAIATLAAEGLKVVLGTPTATPPKWLVDRYPEILPVDREGRRRRFGGRRHYCFSSPVYREEARRIVTLLAERYGGLEAVAGFQTDNEYGCHDTVRCYCPRCQEAFRGWLEARYGTIEALNEAWGTAFWSQRYRSFAEVELPHLTVAEPNPSHLLDYYRFASDQVRAFNRLQVEILRAHAPGKFVTHNFMGFFTDLDAFALAQDLDFASWDSYPLGFTDLMPLPPEEKLRYARTGHPDVAAFHHDLYRGVGRGRFWVMEQQPGPVNWAPHNPSPAPGMVRLWTWEALAHGAEVVSYFRWRQAPFAQEQMHAGLHRPDSAPDQGFFEAKRVAEELAALALPPVAQAPVALVFDYEAAWIYEVQPQGAEWSYLGLVYLFYSALRRLGLDVDVVPPGASLRGYAFAVVPSLPIVREEALEAFREAEGPVLFGPRSGSKTETFQIPKELPPGPLQALLPLKVVRVESLPPGLLEVAEGALGRFPLGLWREWVEAPLKPLLTFQDGKGALYREGRYLYLAAWPSPELAGRLLSALAAEAGLKVLSLPEGLRLRRRGTWVFAFNYGPEAVEAPASEGARFLLGSRRVGPYDLAVWEEA | soluble |
| FAKQKKESVISAISTVNPQELKVPSSNLTTALAGRMSGLIAFQTTGEPGKDNAQFFVRGATTFGYKKDPLILIDNIELSTDDLARLNVDDIAQFSIMKDATATALYGARGANGVILVTTKQGVAG | not soluble |
| TPARDWNYTAPDGTVVEGWYYLPPQFDPSKKYPMLVYYYGGTSPINRTLEGHYSLAMYAAQGYVVYTLNPSGTTGYGQEYAARHVNAWGDRTADEIIGATKEFIRTHSFVNGKKVGCFGASYGGFMTQYLQTKTDIFAAAVSHAGISSISNYWGSGYWGMGYSTVASTDSYPWNNPDLYAGHSPLFRADKIHTPLLLLHGSVDTNVPTAESVNLYNALKILGREVEFIEFTEQDHFILEPERRIRWTNSICAWFARWL | not soluble |
| MRVYRVKGEVLVAVCDSDIVGKTFREGDLKIEVKESFYGSEEVGEEEVKRALRNATIANITGKKAVELAARIGIIDRNRVLYIGGCPHAQMVVM | not soluble |
| MSLFQDNPLLAQLKQKIQETLPKKEGTIKASDKGFGFLEVDSKTSYFVPPPYMKKCMHGDKVVAFIRTENEREVAEPSELIEQSLTRFIGRVKLFKGKLNVAPDHPQLKKLSLKAKTKKGLNEADFQEGDWVVAHLVRHPLKGDDGFFVQISHKITDANDKIAPWWVTLAENDLPNSEPAGIDDWQLKDDADLVREDLTALPFVTIDGESTKDMDDALYAQQLPNGDFALTIAIADPTAYITPEDEMDKVARERGFTIYLPGRNIPMLPRDLADELCSLMENQVRPALCCSVTIRKDGVIGDDIRFFAANIKSHARLVYDHVSDWLETGSSEQWQPSEEIAQVVRDLYAFSQARANWRETHAVVFPDRPDYRFELSADNDVVAIHADMRRTANRLVEESMITANICAGKTLQTTFGFGVFNTHAGFKAEKMADVVELMAVNGAPNADAETLATVEGFAALRRWLATQETSYLDNRIRKYQSYSEIGNQPLPHFAMGLDVYATWTSPIRKYGDMINHRLLKAHILGKAPVQTPDETVGEELALHRKHHKIAERNVADWLYARTLADEPAKETRFQAEIFDINRPGMRVRLLENGAMAFIPGALILDNKERIECNGEDGTVLIDKEVVYKLGDVLEIVLTEVNQENRSLVGKPTQVFADLVSETQTSAEQPAEGAENNEPQVEGHHHHHH | soluble |
| GSYHADPSLVSFLTGLGCPNCIEYFTSQGLQSIYHLQNLTIEDLGALKIPEQYRMTIWRGLQDLKQGHDYSTAQQLLRSS | soluble |
| MGSDKIHHHHHHMPTPTRWQEKLPEAATTYLEGRRLDEVECVISDLPGIARGKAVPASKFAKQDYFYLPDSIFYQTITGDWAEAADEDGWIEKDMLLRPDMSTATAAPWTGDWTLQVIHDAYDRDGNPIPFSPRNVLKHVVSLYEAQGWKPVVAPEMEFYLVARNVDPARDIQPMMGRSGRPAAARQAYSMTAVDEFGPVIDDIYDFAEAQGFEIDGITQEGGAGQLEINLRHGSPVKLADEVFYFKRLIREAALRHDCFATFMAKPIADEPGSAMHIHHSVIDIESGENIFSGPQGGETDAFYHFIGGLQNHLPAGLAVMAPYVNSYRRYVKNHAAPINLEWARDNRTTGIRVPLSSSASRRVENRIAGMDCNPYLGIAVSLACGYLGLMEERRPTRQFKGDAYEGEGDFPQVMGQALDLFDESKALHEVLGPEFARVYSTVKRAEYEEFLQVISPWEREHLLLNV | not soluble |
| MAKLLITGGCGFLGSNLASFALSQGIDLIVFDNLSRKGATDNLHWLSSLGNFEFVHGDIRNKNDVTRLITKYMPDSCFHLAGQVAMTTSIDNPCMDFEINVGGTLNLLEAVRQYNSNCNIIYSSTNKVYGDLEQYKYNETETRYTCVDKPNGYDESTQLDFHSPYGCSKGAADQYMLDYARIFGLNTVVFRHSSMYGGRQFATYDQGWVGWFCQKAVEIKNGINKPFTISGNGKQVRDVLHAEDMISLYFTALANVSKIRGNAFNIGGTIVNSLSLLELFKLLEDYCNIDMRFTNLPVRESDQRVFVADIKKITNAIDWSPKVSAKDGVQKMYDWTSSILEHHHHHH | soluble |
| MSLDIKVQKTEDLIPYEKNPRHNEGAITAVAKSIEKFGFKVPIVVDASNVIVNGHTRLKAAKYLGLKEVPTIIADDLTPEQIKAFRLADNKVGEIATWDEELLNAELDELADLDLDFDMTEFGFDLPDIEGEEVEVIEDEFEEELPAEPISKLGDIYQLGRHRLMCGDSTNSLEVEKLMGNKKADLLITDPPYNVAYEGKGKEALTIKNDSKETNEFHSFLYEAFSAAINNMKLGSSFYVWYASSEVVNFHTALEEAGFLVKQELIWNKNSMVLSRQDYHWKHEPCLYGWASGGSHSWYSDRKQTTILNFDRPTVNKEHPTMKPVALFDYQIKNSSKQGDCILDLFGGSGTTLIACEQNEREAYLMELDPRYVDVIIARWEAFTGEVAVKISGNDTAVVDGEGHHHHHH | soluble |
| MSLYIETVRGKIKPEEFGVCACHEHLHIDLSRIKNDSDTALVEVALVLSDLKSFVSHGGQAIVDVTNDGMGRDVEKLVVMSEALDLHIVASTGCYKDPFIPEEKQMWTREQFAEWMIDEIMYGISGTTVKPGVIGEIGSSLNEFKPVELELFYGAIEAAKTTKLPLSTHTTLGTLAMEQIRLFDSESLPLDQVIIGHQDLNDDDEQVLKVLSTGAYVALDTIGKENYRSDEARLNSLLLFLEKGYEDQLLLSSDVTRTSHLLVHGGQGYDVVLRSFIPKLRAKGADEATIQKLLVKTHKKHLASREGHHHHHH | not soluble |
| MDFKASGTKFKKTGKKVVPAKAFEEIVQTNRDVLKKSAFLSDLLENLQPHLNNIKKIRCVAIGNFKEDFPATYQFALLLEITDYIKSEDERDVVVSLYDPIFTKEEIQYLKSLGSKWLIEEEFSENDAIDYESVLYFLPHAPLDLTENILSSQRPHLWLANNMISHTDRYTKAKLCENYPNLSKLVHYLQTNAPPEVKKAHDVDGFATFIPKRKRKNRNNSSKLKVTPSDIDYDSIAPKFKSCQILTDFDEGKYLKEKPWINSFSDLTLHAIEY | not soluble |
| MGSDKIHHHHHHENLYFQGMQVIKQKLTATCAQLTGYLHQPDTNAHQTNLPAIIIVPGGSYTHIPVAQAESLAMAFAGHGYQAFYLEYTLLTDQQPLGLAPVLDLGRAVNLLRQHAAEWHIDPQQITPAGFSVGGHIVALYNDYWATRVATELNVTPAMLKPNNVVLGYPVISPLLGFPKDDATLATWTPTPNELAADQHVNSDNQPTFIWTTADDPIVPATNTLAYATALATAKIPYELHVFKHGPHGLALANAQTAWKPDANQPHVAHWLTLALEWLADNR | soluble |
